Experimental data taken from patent US20110177059A1, “PSA AND KLK2 AS THERAPEUTIC TARGETS AND MOLECULES INHIBITING PSA AND KLK2” (UNIVERSITY OF ROCHESTER, priority 2008, published 2011).

Test system: LN-PSA cells
Assay: MTT assay with PSA proteinase inhibitor, LN-PSA cells
Assay type: cell-based, human
Conditions: 1000 ng/ml, vs vehicle 1x PBS
Procedure: Cells of stable transfected LNCaP, CWR22rv1, PC-3 and Du145 sublines were seeded in 24-well tissue culture plates at a density of 5000 cells/well in media containing 10% CD-FBS with 1 nM DHT. At the indicated time points, the medium was replenished and determined cell proliferation by MTT [3-(4,5-dimethylthiazol-2-yl)-2,5-diphenyltetrazolium bromide assay. Serum-free medium containing MTT (0.5 mg/ml, Sigma) was added into each well and after 4 h incubation at 37° C., cellular formazan product was dissolved with acidic isopropanol, and the absorbance at OD595 was measured by spectrophotometry (Beckman Du640B). 6 replicate wells were used for each sample at each time point. a-Antichymotrypsin (MP Biomedicals, Inc) at a concentration of 1000 ng/ml was used in the MTT assay as a PSA proteinase inhibitor to treat the LNCaP cell sublines. LN-PSA, LN-siPSA cells were grown in 100-mm dishes. The cells were digested by trypsin-EDTA, harvested as many as 1×10^6 cells, and fixed them in 70% ethanol at 4° C. After 12 h, cells were centrifuged (1000 g, 7 min, 4° C.), and resuspended in PBS containing 0.05 mg/ml RNase A (Sigma), and then incubated at room temperature for 30min. After washing, the cells were stained with […] propidium iodide, filtered through a […], and analyzed 10,000 cells by flow cytometry (FACSCalibur, BD Company) with MODFIT software (Verity Software House, Inc).

B1: α1-antichymotrypsin: PSA protease inhibitor (MP Biomedicals), used at 1000 ng/ml (protein, UniProt P01011 24-423, looked up)
Alpha-1-antichymotrypsin: HPNSPLDEENLTQENQDRGTHVDLGLASANVDFAFSLYKQLVLKAPDKNVIFSPLSISTALAFLSLGAHNTTLTEILKGLKFNLTETSEAEIHQSFQHLLRTLNQSSDELQLSMGNAMFVKEQLSLLDRFTEDAKRLYGSEAFATDFQDSAAAKKLINDYVKNGTRGKITDLIKDLDSQTMMVLVNYIFFKAKWEMPFDPQDTHQSRFYLSKKKWVMVPMMSLHHLTIPYFRDEELSCTVVELKYTGNASALFILPDQDKMEEVEAMLLPETLKRWRDSLEFREIGELYLPKFSISRDYNLNDILLQLGIEEAFTSKADLSGITGARNLAVSQVVHKAVLDVFEEGTEASAATAVKITLLSALVETRTIVRFNRPFLMIIVPTDTQNIFFMSKVTNPKQA
Q: With B1 as the molecule, how does the “PSA-induced cell growth (MTT)” value read?
A: limited influence

Q: What about the “PSA-induced cell growth (MTT)” value (listed as ACT) of the same molecule?
A: not significantly changed
